Source: article PMC11606422, “MdWRKY31‐MdNAC7 regulatory network: orchestrating fruit softening by modulating cell wall‐modifying enzyme MdXTH2 in response to ethylene signalling”

Molecular target: T1, MdNAC7 (Malus domestica, UniProt D9ZJA6 1-263)
T1 sequence: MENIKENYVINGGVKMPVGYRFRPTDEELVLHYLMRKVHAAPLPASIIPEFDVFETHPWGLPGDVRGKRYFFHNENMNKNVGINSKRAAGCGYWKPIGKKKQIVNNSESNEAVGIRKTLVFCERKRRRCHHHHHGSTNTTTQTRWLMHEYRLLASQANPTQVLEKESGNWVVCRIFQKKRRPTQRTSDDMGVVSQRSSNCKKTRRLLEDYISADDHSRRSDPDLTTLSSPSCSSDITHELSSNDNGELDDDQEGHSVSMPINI
Assay: EMSA; LightShift Chemiluminescent EMSA kit, 10 uL, room temperature 30 min, 6% polyacrylamide gel in 0.5x TBE; salt and pH not stated
Details: protein: recombinant; chain copies: 2; label: biotin

B1: MdXTH2 promoter probe for MdNAC7 (dsDNA)
DNA 1: GTAGTACACCATGTGTTATTAT
DNA 2: ATAATAACACATGGTGTACTAC
  binding result: no binding
